Test results reported in US20250109182A1 (KITE PHARMA, published 2025).

B1: engineered, dominant-negative TGF-β receptor Type 1 (DN TGF-βRI) construct of SEQ ID NO: 10 (receptor)
chain: LQCFCHLCTKDNFTCVTDGLCFVSVTETTDKVIHNSMCIAEIDLIPRDRPFVCAPSSKTGSVTTTYCCNQDHCNKIELPTTVKSSPGLGPVELAAVIAGPVCFVCISLMLMVYIRVNRQ
B2: Construct CAR 1 (GPC3 scFv + 4-1BB intracellular domain + CD3ζ intracellular domain), GPC3-CAR encoded by the codon-optimized sequence of SEQ ID NO: 51 (other)
chain: DIVMTQSPDSLAVSLGERATINCKSSQSLLYSSNQKNYLAWYQQKPGQPPKLLIYWASSRESGVPDRFSGSGSGTDFTLTISSLQAEDVAVYYCQQYYNYPLTFGQGTKLEIKGSTSGSGKPGSGEGSTKGEVQLVESGGGLVQPGGSLRLSCAASGFTFNKNAMNWVRQAPGKGLEWVGRIRNKTNNYATYYADSVKARFTISRDDSKNSLYLQMNSLKTEDTAVYYCVAGNSFAYWGQGTLVTVSSGSTTTPAPRPPTPAPTIASQPLSLRPEACRPAAGGAVHTRGLDFACDIYIWAPLAGTCGVLLLSLVITLYCKRGRKKLLYIFKQPFMRPVQTTQEEDGCSCRFPEEEEGGCELRVKFSRSADAPAYQQGQNQLYNELNLGRREEYDVLDKRRGRDPEMGGKPRRKNPQEGLYNELQKDKMAEAYSEIGMKGERRRGKGHDGLYQGLSTATKDTYDALHMQALPPR
notes: Chimeric antigen receptor expressed on transduced primary human CD3+ T cells; also called GPC3-CAR construct

Assays:
[1] = target: TGF-β Receptor Type II (TGF-βRII), endogenous wild-type, in primary human T cells (human, UniProt P37173 23-567); assay: cell-based or functional assay
[2] = target: T1, recombinant human GPC3 (rhGPC3) fluorescently conjugated to DyLight 650 (human, UniProt P51654 25-559, limits assumed, fluorescently conjugated to DyLight 650); assay: flow cytometry; rhGPC3-DyLight 650 staining of CAR+ T cells
T1 construct: Soluble staining reagent for flow cytometry, diluted 1:200; also called Glypican-3
Source text: (§1) Similar to the previous trials, CD3⁺ cells were isolated from primary human peripheral blood mononuclear cells (PBMCs) and transduced with the GPC3 CAR constructs above in the presence of polybrene and at a multiplicity of infection of two, based on expression titer in Jurkat cells. At the end of manufacturing, cells were frozen down in Cryostor® CS5 and stored in liquid nitrogen until thawing. Upon thawing, cells were rested in T cell culture medium overnight with 100 UI/mL IL-2, washed, and stained with Live/Dead™ Violet diluted at 1:1000, recombinant human GPC3 (rhGPC3) fluorescently conjugated to DyLight™ 650 diluted at 1:200, and anti-CD3 BV650 at 1:100 in PBS for 30 min at 4° C. The DNA of a pellet of 1×10⁵ cells was extracted in QuickExtract™ Buffer, frozen, and used to measure average vector copy number (VCN) by droplet digital PCR quantifying frequency of integrated virus per cell. Percentage CAR+ cells are defined as percentage of cells staining with rhGPC3 amongst Live/Dead™ negative, CD3⁺ positive cells, and Mean Fluorescence Intensity (MFI) of CAR⁺, and Vector copy number (VCN) are given in the example. […] Construct CAR 1 also has higher MFI of CAR⁺ cells, which could indicate more efficient expression or higher affinity of the CAR to rhGPC3.

[3] = target: T1, recombinant human GPC3 (rhGPC3) …; assay: flow cytometry; transduced T cells stained with rhGPC3-DyLight 650 at 1:200; gated live CD3+
Source text: as §1

Sequence of TGF-β Receptor Type II (TGF-βRII), endogenous wild-type, in primary human T cells (P37173 23-567): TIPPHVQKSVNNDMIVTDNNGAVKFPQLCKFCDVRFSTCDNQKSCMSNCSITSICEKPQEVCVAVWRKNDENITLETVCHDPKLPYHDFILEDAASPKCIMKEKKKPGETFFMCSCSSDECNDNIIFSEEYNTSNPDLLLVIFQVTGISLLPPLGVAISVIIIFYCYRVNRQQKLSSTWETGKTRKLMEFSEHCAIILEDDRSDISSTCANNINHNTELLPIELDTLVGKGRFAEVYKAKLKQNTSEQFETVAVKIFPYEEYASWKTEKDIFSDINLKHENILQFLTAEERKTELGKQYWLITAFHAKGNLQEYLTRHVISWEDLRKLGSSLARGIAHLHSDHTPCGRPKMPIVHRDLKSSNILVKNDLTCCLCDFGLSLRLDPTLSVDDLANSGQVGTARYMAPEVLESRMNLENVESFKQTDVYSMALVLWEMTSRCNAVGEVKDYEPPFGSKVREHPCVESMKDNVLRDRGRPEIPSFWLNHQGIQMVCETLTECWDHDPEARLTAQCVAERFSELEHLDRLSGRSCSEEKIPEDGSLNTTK
T1 sequence (P51654 25-559 limits assumed): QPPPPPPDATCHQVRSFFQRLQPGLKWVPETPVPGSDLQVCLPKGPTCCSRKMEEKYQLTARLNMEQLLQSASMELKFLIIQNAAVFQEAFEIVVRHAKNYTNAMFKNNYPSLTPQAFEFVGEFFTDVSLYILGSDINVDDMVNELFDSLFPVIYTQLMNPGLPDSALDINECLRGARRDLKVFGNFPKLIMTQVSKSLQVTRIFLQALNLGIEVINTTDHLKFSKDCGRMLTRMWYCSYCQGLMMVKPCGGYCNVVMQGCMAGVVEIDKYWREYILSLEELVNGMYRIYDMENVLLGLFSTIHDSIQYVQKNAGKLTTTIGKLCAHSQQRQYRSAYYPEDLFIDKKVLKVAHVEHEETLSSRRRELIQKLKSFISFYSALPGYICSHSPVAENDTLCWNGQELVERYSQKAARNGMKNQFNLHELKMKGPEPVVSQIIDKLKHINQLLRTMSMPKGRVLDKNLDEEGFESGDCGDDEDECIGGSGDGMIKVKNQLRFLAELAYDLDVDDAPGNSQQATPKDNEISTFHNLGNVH

Row | Binder | fold less induction of pSMAD2 and pSMAD3 versus PSMA CAR only, TGF-β1 stimulated T cells [1] | fold less induction of pSMAD2 versus CD19 CAR only, TGF-β1 stimulated T cells [1] | fold less induction of pSMAD2 versus GPC3 CAR only, 4-1BB co-stimulation, TGF-β1 stimulated T cells [1] | fold less induction of pSMAD3 versus CD19 CAR only, TGF-β1 stimulated T cells [1] | fold less induction of pSMAD3 versus GPC3 CAR only, 4-1BB co-stimulation, TGF-β1 stimulated T cells [1] | MFI CAR + [2] | % CAR + (percentage of cells staining with rhGPC3) [3]
1 | B1 | ~2 fold | ~4 fold | ~3 fold | ~2 fold | ~1.3 fold | – | –
2 | B2 | – | – | – | – | – | 21100 MFI | 93.4%
